How the values were obtained:
HLA-A*29:02 = experiment: IEDB peptide-MHC binding, purified MHC/direct/fluorescence; filed as Kd, often an IC50 or EC50 that approximates it; ≥ and ≤ were set here for values at or beyond the usual limits of such assays
HLA-A*01:01 [1] = experiment: as above
HLA-B*35:01 = experiment: IEDB peptide-MHC binding, purified MHC/competitive/radioactivity; filed as Kd, often an IC50 or EC50 that approximates it; ≥ and ≤ were set here for values at or beyond the usual limits of such assays; conditions: source organism: Hepatitis C virus (isolate 1)
HLA-B*54:01 = experiment: as above; conditions: source organism: Hepatitis C virus (isolate 1)
HLA-B*40:02 = experiment: as above; conditions: source organism: Hepatitis C virus (isolate 1)
HLA-B*44:03 = experiment: as above; conditions: source organism: Hepatitis C virus (isolate 1)
HLA-B*40:01 [2] = experiment: as above; conditions: source organism: Hepatitis C virus (isolate 1)
HLA-A*03:01 [3] = experiment: as above; conditions: source organism: Hepatitis C virus (isolate 1)
HLA-B*18:01 [4] = experiment: as above; conditions: source organism: Hepatitis C virus (isolate 1)
HLA-A*11:01 [5] = experiment: as above; conditions: source organism: Hepatitis C virus (isolate 1)
HLA-B*07:02 [6] = experiment: as above; conditions: source organism: Hepatitis C virus (isolate 1)
HLA-A*02:06 = experiment: as above; conditions: source organism: Hepatitis C virus (isolate 1)
HLA-A*02:01 [7] = experiment: as above; conditions: source organism: Hepatitis C virus (isolate 1)
HLA-A*01:01 [8] = experiment: as above; conditions: source organism: Hepatitis C virus (isolate 1)
HLA-A*02:03 = experiment: as above; conditions: source organism: Hepatitis C virus (isolate 1)
HLA-B*51:01 [9] = experiment: as above; conditions: source organism: Hepatitis C virus (isolate 1)
HLA-A*68:02 = experiment: as above; conditions: source organism: Hepatitis C virus (isolate 1)
HLA-A*33:01 = experiment: as above; conditions: source organism: Hepatitis C virus (isolate 1)
HLA-A*31:01 [10] = experiment: as above; conditions: source organism: Hepatitis C virus (isolate 1)
HLA-A*02:02 = experiment: as above; conditions: source organism: Hepatitis C virus (isolate 1)
HLA-B*53:01 = experiment: as above; conditions: source organism: Hepatitis C virus (isolate 1)
HLA-A*68:01 = experiment: as above; conditions: source organism: Hepatitis C virus (isolate 1)
HLA-A*69:01 = experiment: IEDB peptide-MHC binding, purified MHC/direct/fluorescence; filed as Kd, often an IC50 or EC50 that approximates it; ≥ and ≤ were set here for values at or beyond the usual limits of such assays
HLA-B*57:01 = experiment: as above
HLA-B*08:01 = experiment: as above
HLA-B*27:05 = experiment: as above
HLA-B*40:01 [11] = experiment: as above
HLA-B*48:01 = experiment: as above
HLA-B*46:01 = experiment: as above
HLA-A*03:01 [12] = experiment: as above
HLA-B*18:01 [13] = experiment: as above
HLA-A*11:01 [14] = experiment: as above
HLA-B*44:02 = experiment: as above
HLA-A*02:01 [15] = experiment: as above
HLA-B*58:01 = experiment: as above
HLA-A*31:01 [16] = experiment: as above
HLA-B*07:02 [17] = experiment: as above; conditions: source organism: Mycobacterium tuberculosis
HLA-A*02:01 [18] = experiment: IEDB peptide-MHC binding, purified MHC/competitive/fluorescence; filed as Kd, often an IC50 or EC50 that approximates it; ≥ and ≤ were set here for values at or beyond the usual limits of such assays; conditions: source organism: Mycobacterium tuberculosis variant bovis BCG str. Pasteur 1173P2
HLA-B*15:01 = experiment: IEDB peptide-MHC binding, purified MHC/direct/fluorescence; filed as Kd, often an IC50 or EC50 that approximates it; ≥ and ≤ were set here for values at or beyond the usual limits of such assays; conditions: source organism: Mycobacterium tuberculosis variant bovis
HLA-B*51:01 [19] = experiment: IEDB peptide-MHC binding, purified MHC/competitive/fluorescence; filed as Kd, often an IC50 or EC50 that approximates it; ≥ and ≤ were set here for values at or beyond the usual limits of such assays; conditions: source organism: Mycobacterium tuberculosis variant bovis
[20] = source organism: Mammarenavirus juninense
[21] = source organism: Mycobacterium tuberculosis C
[22] = source organism: Mycobacterium tuberculosis
[23] = source organism: Mycobacterium tuberculosis variant bovis

## ATDPVEMAL
HLA-A*29:02; [20]
  Kd: ≥ 20 µM
HLA-A*01:01 [1]; [20]
  Kd: 0.308 µM

## HSKKKCDEL
HLA-B*35:01
  Kd: ≥ 77.4 µM
HLA-B*54:01
  Kd: ≥ 78.1 µM
HLA-B*40:02
  Kd: ≥ 77.3 µM
HLA-B*44:03
  Kd: ≥ 78.2 µM
HLA-B*40:01 [2]
  Kd: ≥ 76.2 µM
HLA-A*03:01 [3]
  Kd: ≥ 78 µM
HLA-B*18:01 [4]
  Kd: ≥ 77.5 µM
HLA-A*11:01 [5]
  Kd: ≥ 37.3 µM
HLA-B*07:02 [6]
  Kd: ≥ 77.5 µM
HLA-A*02:06
  Kd: ≥ 77.1 µM
HLA-A*02:01 [7]
  Kd: ≥ 69.4 µM
HLA-A*01:01 [8]
  Kd: 3.52 µM
HLA-A*02:03
  Kd: ≥ 78.1 µM
HLA-B*51:01 [9]
  Kd: ≥ 77.5 µM
HLA-A*68:02
  Kd: ≥ 69.8 µM
HLA-A*33:01
  Kd: ≥ 77.7 µM
HLA-A*31:01 [10]
  Kd: ≥ 65 µM
HLA-A*02:02
  Kd: ≥ 70 µM
HLA-B*53:01
  Kd: ≥ 78.2 µM
HLA-A*68:01
  Kd: ≥ 77.7 µM

## IIRTENRPL
HLA-A*69:01; [21]
  Kd: ≥ 20 µM
HLA-B*57:01; [21]
  Kd: ≥ 20 µM
HLA-B*08:01; [21]
  Kd: 3.06 µM
HLA-B*27:05; [21]
  Kd: ≥ 20 µM
HLA-B*40:01 [11]; [21]
  Kd: ≥ 20 µM
HLA-B*48:01; [21]
  Kd: ≥ 20 µM
HLA-B*46:01; [21]
  Kd: ≥ 20 µM
HLA-A*03:01 [12]; [21]
  Kd: ≥ 20 µM
HLA-B*18:01 [13]; [21]
  Kd: ≥ 20 µM
HLA-A*11:01 [14]; [21]
  Kd: ≥ 20 µM
HLA-A*29:02; [21]
  Kd: ≥ 20 µM
HLA-B*44:02; [21]
  Kd: ≥ 20 µM
HLA-A*02:01 [15]; [21]
  Kd: ≥ 20 µM
HLA-A*01:01 [1]; [21]
  Kd: ≥ 20 µM
HLA-B*58:01; [21]
  Kd: ≥ 20 µM
HLA-A*31:01 [16]; [21]
  Kd: ≥ 20 µM

## IQAVFGFSL
HLA-A*69:01; [22]
  Kd: ≥ 20 µM
HLA-B*57:01; [22]
  Kd: ≥ 20 µM
HLA-B*27:05; [22]
  Kd: ≥ 20 µM
HLA-B*46:01; [22]
  Kd: ≥ 20 µM
HLA-A*03:01 [12]; [22]
  Kd: ≥ 20 µM
HLA-A*11:01 [14]; [22]
  Kd: ≥ 20 µM
HLA-A*29:02; [22]
  Kd: ≥ 20 µM
HLA-B*44:02; [22]
  Kd: ≥ 20 µM
HLA-B*07:02 [17]
  Kd: ≥ 20 µM
HLA-A*01:01 [1]; [22]
  Kd: ≥ 20 µM
HLA-B*58:01; [22]
  Kd: ≥ 20 µM
HLA-A*31:01 [16]; [22]
  Kd: ≥ 20 µM
HLA-A*02:01 [18]
  Kd: 1.35 µM

## TPREAPYEL
HLA-A*69:01; [23]
  Kd: ≥ 20 µM
HLA-B*57:01; [23]
  Kd: ≥ 20 µM
HLA-B*08:01; [23]
  Kd: 7 µM
HLA-B*27:05; [23]
  Kd: ≥ 20 µM
HLA-B*40:01 [11]; [23]
  Kd: ≥ 20 µM
HLA-B*48:01; [23]
  Kd: ≥ 20 µM
HLA-B*46:01; [23]
  Kd: ≥ 20 µM
HLA-A*03:01 [12]; [23]
  Kd: ≥ 20 µM
HLA-B*18:01 [13]; [23]
  Kd: ≥ 20 µM
HLA-A*11:01 [14]; [23]
  Kd: ≥ 20 µM
HLA-A*29:02; [23]
  Kd: ≥ 20 µM
HLA-B*44:02; [23]
  Kd: ≥ 20 µM
HLA-A*02:01 [15]; [23]
  Kd: ≥ 20 µM
HLA-A*01:01 [1]; [23]
  Kd: ≥ 20 µM
HLA-B*58:01; [23]
  Kd: ≥ 20 µM
HLA-A*31:01 [16]; [23]
  Kd: ≥ 20 µM
HLA-B*15:01
  Kd: ≥ 20 µM
HLA-B*51:01 [19]
  Kd: ≥ 20 µM

From the Immune Epitope Database (IEDB)
